Patent publication EP1645881A1

Tests used:
[1] = target: JunΔdimΔDNA-mRFP1 (human) (UniProt P05412); test: dual-colour FCCS in living HeLa cells; references: 13% for no interaction, 45% for 100% interaction
[2] = target: monomeric Red Fluorescent Protein 1 (mRFP1); test: dual-colour FCCS in living HeLa cells, proteins expressed separately from pIRES-EGFP-mRFP1 (negative control, 0% interaction)

Chain of UniProt P05412 (P05412 other isoform, or with tags, fused parts or gaps mutant): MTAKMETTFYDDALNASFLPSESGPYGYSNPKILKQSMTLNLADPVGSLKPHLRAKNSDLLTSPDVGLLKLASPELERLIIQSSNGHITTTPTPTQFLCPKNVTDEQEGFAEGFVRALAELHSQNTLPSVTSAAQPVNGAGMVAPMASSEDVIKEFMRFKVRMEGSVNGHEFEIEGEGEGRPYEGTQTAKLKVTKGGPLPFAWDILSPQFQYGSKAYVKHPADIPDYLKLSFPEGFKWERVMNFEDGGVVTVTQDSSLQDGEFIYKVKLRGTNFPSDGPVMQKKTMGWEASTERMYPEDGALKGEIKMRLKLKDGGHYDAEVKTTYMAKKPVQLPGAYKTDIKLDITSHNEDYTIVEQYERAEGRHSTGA

cross-correlation amplitude [1] [%]	cross-correlation amplitude (percent of the autocorrelation signal) [2] [%]	Substance
18	–	FosΔdimΔDNA-EGFP (from UniProt P01100 1-138)
–	13	Enhanced Green Fluorescent Protein (EGFP)
